From article PMC4184891, “Involvement of the Iron Regulatory Protein from Eisenia andrei Earthworms in the Regulation of Cellular Iron Homeostasis”

T1: rEaIRP (iron regulatory protein) (Eisenia andrei, UniProt I1VH49 1-890)
T1 sequence: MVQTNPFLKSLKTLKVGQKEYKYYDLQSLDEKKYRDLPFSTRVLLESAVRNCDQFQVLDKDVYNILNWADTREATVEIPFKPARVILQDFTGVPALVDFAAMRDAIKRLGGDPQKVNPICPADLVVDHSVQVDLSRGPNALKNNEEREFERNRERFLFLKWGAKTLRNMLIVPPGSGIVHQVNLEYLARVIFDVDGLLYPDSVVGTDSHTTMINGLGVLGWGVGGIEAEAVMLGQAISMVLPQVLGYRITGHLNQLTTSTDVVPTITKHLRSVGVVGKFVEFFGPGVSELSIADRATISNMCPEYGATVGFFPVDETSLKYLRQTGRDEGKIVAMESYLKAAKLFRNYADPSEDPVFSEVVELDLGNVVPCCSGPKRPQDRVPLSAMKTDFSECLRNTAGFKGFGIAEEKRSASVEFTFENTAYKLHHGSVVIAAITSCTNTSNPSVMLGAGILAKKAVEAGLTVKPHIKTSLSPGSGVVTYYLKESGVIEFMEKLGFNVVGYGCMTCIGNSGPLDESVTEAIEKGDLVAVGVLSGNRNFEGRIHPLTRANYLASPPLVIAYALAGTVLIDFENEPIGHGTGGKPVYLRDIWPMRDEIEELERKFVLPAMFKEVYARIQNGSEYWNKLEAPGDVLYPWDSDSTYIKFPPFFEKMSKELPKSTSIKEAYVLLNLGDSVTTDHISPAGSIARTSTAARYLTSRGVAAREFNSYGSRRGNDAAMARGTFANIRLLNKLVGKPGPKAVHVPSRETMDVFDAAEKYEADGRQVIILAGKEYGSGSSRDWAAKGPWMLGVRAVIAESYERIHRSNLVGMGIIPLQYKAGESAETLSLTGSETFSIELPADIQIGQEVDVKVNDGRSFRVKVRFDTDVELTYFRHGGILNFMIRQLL

B1: MAMconsIRE (structured_RNA)
RNA: GGGUUUCCUGCUUCAACAGUGCUUGGACGGAACCC
modifications: Bio-11-UTP incorporated in transcription (probe)
B2: EAconsIRE (structured_RNA)
RNA: GGGUGCUUUGCUGCGUCAGUGUGCGUGCGAGCUAA
modifications: Bio-11-UTP incorporated in transcription (probe)

Experiments:
[1] = biological target: T1, rEaIRP (iron regulatory protein); test: EMSA; 6 nM RNA, 50 nM protein, tRNA; reduced by 200-fold unlabeled MAMconsIRE; LightShift RNA EMSA kit binding buffer (composition not given), 5% glycerol, 2 ug tRNA, 20 ul, 30 min room temperature; rEaIRP reduced with 1 mM 2-mercaptoethanol; 6% native PAGE in 0.5X TBE; pH and salt not given; liver extract lanes left out (protein not identified); conditions: protein: recombinant; tags: N-terminal 6xHis (pRSET B); label: biotin; hairpin with bulged C
[2] = biological target: T1, rEaIRP (iron regulatory protein); test: EMSA; 6 nM RNA, 5-150 nM protein, tRNA; complex visible at 20 nM, distinct at 50 nM; low affinity; competed by unlabeled EAconsIRE; LightShift RNA EMSA kit binding buffer (composition not given), 5% glycerol, 2 ug tRNA, 20 ul, 30 min room temperature; rEaIRP reduced with 1 mM 2-mercaptoethanol; 6% native PAGE in 0.5X TBE; pH and salt not given; liver extract lanes left out (protein not identified); conditions: protein: recombinant; tags: N-terminal 6xHis (pRSET B); label: biotin; hairpin; optimal fold has unpaired U one nt closer to the loop instead of bulged C

Row | Binder | binding result [1] | binding result [2]
1 | B1 | binds | –
2 | B2 | – | binds
